{
  "source": "patent US20230295348A1",
  "about": "(NOVIMMUNE, published 2023)",
  "binders": {"B1": {"name": "AM5O38 (bispecific antibody, human IgG1, kappa, lambda, L234A L235A)", "heavy": "not shown", "light 1": "not shown", "light 2": "QPVLTQPASLSASPGASASLTCTLRSGINVRDYRIFWYQQKPGSPPQYLLRYKSASDKQQGSGVPSRFSGSKDASANAGILLISGLQSEDEADYYCMIWHHDSEGHAFVFGGGTKLTVLGQPKAAPSVTLFPPSSEELQANKATLVCLISDFYPGAVTVAWKADSSPVKAGVETTTPSKQSNNKYAASSYLSLTPEQWKSHRSYSCQVTHEGSTVEKTVAPTECS", "notes": "κλ-body: common heavy chain, kappa anti-IL2Rγ light chain (AM5), lambda anti-MSLN light chain (O38); also called AM5O38/N"}, "B2": {"name": "AM5O35 (bispecific antibody, human IgG1, kappa, lambda, L234A L235A)", "heavy": "not shown", "light 1": "not shown", "light 2": "QPVLTQPVSLSASPGASVSLTCTLRSDIRVRDYRIFWYQQKPGSPPQYLLRYKTDSDKQQGSGVPSRFSGSKDASANAGILLISGLQSEDEADYYCMIWHRTTGTSLVFGGGTKLTVLGQPKAAPSVTLFPPSSEELQANKATLVCLISDFYPGAVTVAWKADSSPVKAGVETTTPSKQSNNKYAASSYLSLTPEQWKSHRSYSCQVTHEGSTVEKTVAPTECS", "notes": "κλ-body: common heavy chain, kappa anti-IL2Rγ light chain (AM5), lambda anti-MSLN light chain (O35); also called AM5O35/N"}, "B3": {"name": "AM5O41 (bispecific antibody, human IgG1, kappa, lambda, L234A L235A)", "heavy": "not shown", "light 1": "not shown", "light 2": "SYVLTQPPSVSVAPGKTARITCGGNKIGHRAVHWYQQKPGQAPVLVIYYTYERPSGIPERFSGSNSGNTATLTISRVEAGDEADYYCQVWDWYSEGGVVFGGGTKLTVLGQPKAAPSVTLFPPSSEELQANKATLVCLISDFYPGAVTVAWKADSSPVKAGVETTTPSKQSNNKYAASSYLSLTPEQWKSHRSYSCQVTHEGSTVEKTVAPTECS", "notes": "κλ-body: common heavy chain, kappa anti-IL2Rγ light chain (AM5), lambda anti-MSLN light chain (O41); also called AM5O41/N"}, "B4": {"name": "AM1N2-19 (bispecific antibody, human IgG1, kappa, lambda, L234A L235A)", "heavy": "not shown", "light 1": "DIQMTQSPSSLSASVGDRVTITCRASQSIYYYLNWYQQKPGKAPKLLIYDASALQSGVPSRFSGSGSGTDFTLTISSLQPEDFATYYCQQIDFTAGSITFGQGTKVEIKRTVAAPSVFIFPPSDEQLKSGTASVVCLLNNFYPREAKVQWKVDNALQSGNSQESVTEQDSKDSTYSLSSTLTLSKADYEKHKVYACEVTHQGLSSPVTKSFNRGEC", "light 2": "QSVLTQPPSVSGAPGQRVTISCTGSSSNIENTHTVHWYQQLPGTAPKLLIYDASIRPSGVPDRFSGSKSGTSASLAITGLQAEDEADYYCQSYDWLRGAQVFGGGTKLTVLGQPKAAPSVTLFPPSSEELQANKATLVCLISDFYPGAVTVAWKADSSPVKAGVETTTPSKQSNNKYAASSYLSLTPEQWKSHRSYSCQVTHEGSTVEKTVAPTECS", "notes": "κλ-body: common heavy chain, kappa anti-IL2Rγ light chain (AM1), lambda anti-HER2 light chain (N2-19); also called AM1N2-19/N"}, "B5": {"name": "AM7N2-19 (bispecific antibody, human IgG1, kappa, lambda, L234A L235A)", "heavy": "not shown", "light 1": "DIQLTQSPSFLSASVGDRVTITCRASQDIGIELAWYQQKPGKAPKLLIYFESHLQSGVPSRFSGSGSGTEFTLTISSLQPEDFATYYCQQIRIDPTFGQGTKVEIKRTVAAPSVFIFPPSDEQLKSGTASVVCLLNNFYPREAKVQWKVDNALQSGNSQESVTEQDSKDSTYSLSSTLTLSKADYEKHKVYACEVTHQGLSSPVTKSFNRGEC", "light 2": "QSVLTQPPSVSGAPGQRVTISCTGSSSNIENTHTVHWYQQLPGTAPKLLIYDASIRPSGVPDRFSGSKSGTSASLAITGLQAEDEADYYCQSYDWLRGAQVFGGGTKLTVLGQPKAAPSVTLFPPSSEELQANKATLVCLISDFYPGAVTVAWKADSSPVKAGVETTTPSKQSNNKYAASSYLSLTPEQWKSHRSYSCQVTHEGSTVEKTVAPTECS", "notes": "κλ-body: common heavy chain, kappa anti-IL2Rγ light chain (AM7), lambda anti-HER2 light chain (N2-19); also called AM7N2-19/N"}, "B6": {"name": "AM3N2-19 (bispecific antibody, human IgG1, kappa, lambda, L234A L235A)", "heavy": "not shown", "light 1": "DIQMTQSPSTLSASVGDTVTITCRASHYITTWLAWYQQKPGKAPKLLIYDVSSLESGVPSRFRGRGSGTEFTLTISSLQPDDFATYYCQQYESYSPTFGQGTKVEIKRTVAAPSVFIFPPSDEQLKSGTASVVCLLNNFYPREAKVQWKVDNALQSGNSQESVTEQDSKDSTYSLSSTLTLSKADYEKHKVYACEVTHQGLSSPVTKSFNRGEC", "light 2": "QSVLTQPPSVSGAPGQRVTISCTGSSSNIENTHTVHWYQQLPGTAPKLLIYDASIRPSGVPDRFSGSKSGTSASLAITGLQAEDEADYYCQSYDWLRGAQVFGGGTKLTVLGQPKAAPSVTLFPPSSEELQANKATLVCLISDFYPGAVTVAWKADSSPVKAGVETTTPSKQSNNKYAASSYLSLTPEQWKSHRSYSCQVTHEGSTVEKTVAPTECS", "notes": "κλ-body: common heavy chain, kappa anti-IL2Rγ light chain (AM3), lambda anti-HER2 light chain (N2-19); also called AM3N2-19/N"}, "B7": {"name": "AM4N2-19 (bispecific antibody, human IgG1, kappa, lambda, L234A L235A)", "heavy": "not shown", "light 1": "DIQMTQSPSTLSASVGDRVTITCRASQTIYGPLNWYQQKPGKAPKLLIYSTSYLESGVPSRFSGSGSGTEFTLTISSLQPDDFATYYCQQAGYASAPTFGQGTKVEIKRTVAAPSVFIFPPSDEQLKSGTASVVCLLNNFYPREAKVQWKVDNALQSGNSQESVTEQDSKDSTYSLSSTLTLSKADYEKHKVYACEVTHQGLSSPVTKSFNRGEC", "light 2": "QSVLTQPPSVSGAPGQRVTISCTGSSSNIENTHTVHWYQQLPGTAPKLLIYDASIRPSGVPDRFSGSKSGTSASLAITGLQAEDEADYYCQSYDWLRGAQVFGGGTKLTVLGQPKAAPSVTLFPPSSEELQANKATLVCLISDFYPGAVTVAWKADSSPVKAGVETTTPSKQSNNKYAASSYLSLTPEQWKSHRSYSCQVTHEGSTVEKTVAPTECS", "notes": "κλ-body: common heavy chain, kappa anti-IL2Rγ light chain (AM4), lambda anti-HER2 light chain (N2-19); also called AM4N2-19/N"}, "B8": {"name": "AM6N2-19 (bispecific antibody, human IgG1, kappa, lambda, L234A L235A)", "heavy": "not shown", "light 1": "not shown", "light 2": "QSVLTQPPSVSGAPGQRVTISCTGSSSNIENTHTVHWYQQLPGTAPKLLIYDASIRPSGVPDRFSGSKSGTSASLAITGLQAEDEADYYCQSYDWLRGAQVFGGGTKLTVLGQPKAAPSVTLFPPSSEELQANKATLVCLISDFYPGAVTVAWKADSSPVKAGVETTTPSKQSNNKYAASSYLSLTPEQWKSHRSYSCQVTHEGSTVEKTVAPTECS", "notes": "κλ-body: common heavy chain, kappa anti-IL2Rγ light chain (AM6), lambda anti-HER2 light chain (N2-19); also called AM6N2-19/N"}, "B9": {"name": "AM8N2-19 (bispecific antibody, human IgG1, kappa, lambda, L234A L235A)", "heavy": "not shown", "light 1": "EIVLTQSPGTLSLSPGERATLSCRASQDVATRGLAWYQQKPGQAPRLLIYGASSRATGIPDRFSGSGSGTDFTLTISRLEPEDFAVYYCQQYELEHPATFGQGTKVEIKRTVAAPSVFIFPPSDEQLKSGTASVVCLLNNFYPREAKVQWKVDNALQSGNSQESVTEQDSKDSTYSLSSTLTLSKADYEKHKVYACEVTHQGLSSPVTKSFNRGEC", "light 2": "QSVLTQPPSVSGAPGQRVTISCTGSSSNIENTHTVHWYQQLPGTAPKLLIYDASIRPSGVPDRFSGSKSGTSASLAITGLQAEDEADYYCQSYDWLRGAQVFGGGTKLTVLGQPKAAPSVTLFPPSSEELQANKATLVCLISDFYPGAVTVAWKADSSPVKAGVETTTPSKQSNNKYAASSYLSLTPEQWKSHRSYSCQVTHEGSTVEKTVAPTECS", "notes": "κλ-body: common heavy chain, kappa anti-IL2Rγ light chain (AM8), lambda anti-HER2 light chain (N2-19); also called AM8N2-19/N"}, "B10": {"name": "AM2N2-19 (bispecific antibody, human IgG1, kappa, lambda, L234A L235A)", "heavy": "not shown", "light 1": "DIQLTQSPSFLSASVGDRVTITCRASQTIDAPLRWYQQKPGKAPKLLIYLTSSLQSGVPSRFSGSGSGTEFTLTISSLQPEDFATYYCQQGYAAGPSTFGQGTKVEIKRTVAAPSVFIFPPSDEQLKSGTASVVCLLNNFYPREAKVQWKVDNALQSGNSQESVTEQDSKDSTYSLSSTLTLSKADYEKHKVYACEVTHQGLSSPVTKSFNRGEC", "light 2": "QSVLTQPPSVSGAPGQRVTISCTGSSSNIENTHTVHWYQQLPGTAPKLLIYDASIRPSGVPDRFSGSKSGTSASLAITGLQAEDEADYYCQSYDWLRGAQVFGGGTKLTVLGQPKAAPSVTLFPPSSEELQANKATLVCLISDFYPGAVTVAWKADSSPVKAGVETTTPSKQSNNKYAASSYLSLTPEQWKSHRSYSCQVTHEGSTVEKTVAPTECS", "notes": "κλ-body: common heavy chain, kappa anti-IL2Rγ light chain (AM2), lambda anti-HER2 light chain (N2-19); also called AM2N2-19/N"}, "B11": {"name": "AM5N2-19 (bispecific antibody, human IgG1, kappa, lambda, L234A L235A)", "heavy": "not shown", "light 1": "not shown", "light 2": "QSVLTQPPSVSGAPGQRVTISCTGSSSNIENTHTVHWYQQLPGTAPKLLIYDASIRPSGVPDRFSGSKSGTSASLAITGLQAEDEADYYCQSYDWLRGAQVFGGGTKLTVLGQPKAAPSVTLFPPSSEELQANKATLVCLISDFYPGAVTVAWKADSSPVKAGVETTTPSKQSNNKYAASSYLSLTPEQWKSHRSYSCQVTHEGSTVEKTVAPTECS", "notes": "κλ-body: common heavy chain, kappa anti-IL2Rγ light chain (AM5), lambda anti-HER2 light chain (N2-19); also called AM5N2-19/N"}},
  "key": {"human recombinant IL-2Rγ": {"target": "T1, human recombinant IL-2Rγ (human, UniProt P31785 23-262, limits assumed)", "T1 construct": "Biotinylated and captured on streptavidin plates in the ELISA; also called IL-2Rg; IL2Rg", "T1 sequence (looked up)": "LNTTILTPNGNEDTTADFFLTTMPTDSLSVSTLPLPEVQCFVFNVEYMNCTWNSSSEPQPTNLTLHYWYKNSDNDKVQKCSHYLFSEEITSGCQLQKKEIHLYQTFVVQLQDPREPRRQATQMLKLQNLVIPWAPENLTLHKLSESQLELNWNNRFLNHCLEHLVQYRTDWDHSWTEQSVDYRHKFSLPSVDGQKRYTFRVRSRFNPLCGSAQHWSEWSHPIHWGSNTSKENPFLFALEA", "test": "direct ELISA, biotinylated recombinant protein on streptavidin plates"}, "human recombinant HER2": {"target": "T2, human recombinant HER2 (human, UniProt P04626 23-652)", "T2 construct": "Biotinylated and captured on streptavidin plates in the ELISA; also called human epidermal growth factor receptor 2", "test": "direct ELISA, biotinylated recombinant protein on streptavidin plates"}},
  "data": [
    {"binder": "B1", "values": [
      {"measurement": "binding result", "setting": "human recombinant IL-2Rγ", "result": "binds"}
    ]},
    {"binder": "B2", "values": [
      {"measurement": "binding result", "setting": "human recombinant IL-2Rγ", "result": "binds"}
    ]},
    {"binder": "B3", "values": [
      {"measurement": "binding result", "setting": "human recombinant IL-2Rγ", "result": "binds"}
    ]},
    {"binder": "B4", "values": [
      {"measurement": "binding result", "setting": "human recombinant IL-2Rγ", "result": "binds"},
      {"measurement": "binding result", "setting": "human recombinant HER2", "result": "binds"}
    ]},
    {"binder": "B5", "values": [
      {"measurement": "binding result", "setting": "human recombinant IL-2Rγ", "result": "binds"},
      {"measurement": "binding result", "setting": "human recombinant HER2", "result": "binds"}
    ]},
    {"binder": "B6", "values": [
      {"measurement": "binding result", "setting": "human recombinant IL-2Rγ", "result": "binds"},
      {"measurement": "binding result", "setting": "human recombinant HER2", "result": "binds"}
    ]},
    {"binder": "B7", "values": [
      {"measurement": "binding result", "setting": "human recombinant IL-2Rγ", "result": "binds"},
      {"measurement": "binding result", "setting": "human recombinant HER2", "result": "binds"}
    ]},
    {"binder": "B8", "values": [
      {"measurement": "binding result", "setting": "human recombinant IL-2Rγ", "result": "binds"},
      {"measurement": "binding result", "setting": "human recombinant HER2", "result": "binds"}
    ]},
    {"binder": "B9", "values": [
      {"measurement": "binding result", "setting": "human recombinant IL-2Rγ", "result": "binds"},
      {"measurement": "binding result", "setting": "human recombinant HER2", "result": "binds"}
    ]},
    {"binder": "B10", "values": [
      {"measurement": "binding result", "setting": "human recombinant IL-2Rγ", "result": "binds"},
      {"measurement": "binding result", "setting": "human recombinant HER2", "result": "binds"}
    ]},
    {"binder": "B11", "values": [
      {"measurement": "binding result", "setting": "human recombinant IL-2Rγ", "result": "binds"},
      {"measurement": "binding result", "setting": "human recombinant HER2", "result": "binds"}
    ]}
  ]
}
